Assay results as given in patent US20240247072A1 (KEYMED BIOSCIENCES, published 2024).

Assays:
[1] = biological target: T1, human CD70, full length, on CHO cells (CHO-human CD70-B07) (human, UniProt P32970 1-193); assay: flow cytometry, Fab on CHO-human CD70 cells
T1 construct: whole, on cells; Stably transfected CHO cells; also called CHO-CD70
T1 sequence (looked up): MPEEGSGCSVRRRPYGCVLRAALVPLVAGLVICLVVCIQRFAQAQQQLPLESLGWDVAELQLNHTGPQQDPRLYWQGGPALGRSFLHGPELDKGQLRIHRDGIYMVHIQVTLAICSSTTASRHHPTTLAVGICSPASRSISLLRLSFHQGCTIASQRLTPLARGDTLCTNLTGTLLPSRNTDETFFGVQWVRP
Experimental: The blank control cell CHO and stably-transfected cell line CHO-CD70 were prepared and added at 5×10⁴ cells/well into a 96-well plate respectively. 50 μL of Fab antibodies with different dilution gradients were added into each well and incubated at 4° C. for 60 minutes. The centrifuge was performed to discard the supernatant. The plate was washed with 0.5% BSA/PBS and added with 50 μL of a secondary antibody solution (Anti-human IgG F (ab′) 2-AF647, Jackson Immuno Research) and incubated at 4° C. for 45 minutes. The excess secondary antibody was washed off with 0.5% BSA. The PBS solution was added to resuspend cells for flow cytometry. The data was collected.

[2] = biological target: T2, recombinant trimeric protein of human CD70 extracellular region (human CD70 mIgG Fc (knob) / mouse IgG Fc … (human, UniProt P01863 98-330 = IgG part)); assay: BLI (Octet), biotin antigen on SA probe, Fab in solution
T2 construct: The ELISA and Octet texts say only 'recombinant CD70 protein' / 'CM352 antigen'; also called recombinant human CD70 protein; recombinant CD70 protein
T2 chain 1: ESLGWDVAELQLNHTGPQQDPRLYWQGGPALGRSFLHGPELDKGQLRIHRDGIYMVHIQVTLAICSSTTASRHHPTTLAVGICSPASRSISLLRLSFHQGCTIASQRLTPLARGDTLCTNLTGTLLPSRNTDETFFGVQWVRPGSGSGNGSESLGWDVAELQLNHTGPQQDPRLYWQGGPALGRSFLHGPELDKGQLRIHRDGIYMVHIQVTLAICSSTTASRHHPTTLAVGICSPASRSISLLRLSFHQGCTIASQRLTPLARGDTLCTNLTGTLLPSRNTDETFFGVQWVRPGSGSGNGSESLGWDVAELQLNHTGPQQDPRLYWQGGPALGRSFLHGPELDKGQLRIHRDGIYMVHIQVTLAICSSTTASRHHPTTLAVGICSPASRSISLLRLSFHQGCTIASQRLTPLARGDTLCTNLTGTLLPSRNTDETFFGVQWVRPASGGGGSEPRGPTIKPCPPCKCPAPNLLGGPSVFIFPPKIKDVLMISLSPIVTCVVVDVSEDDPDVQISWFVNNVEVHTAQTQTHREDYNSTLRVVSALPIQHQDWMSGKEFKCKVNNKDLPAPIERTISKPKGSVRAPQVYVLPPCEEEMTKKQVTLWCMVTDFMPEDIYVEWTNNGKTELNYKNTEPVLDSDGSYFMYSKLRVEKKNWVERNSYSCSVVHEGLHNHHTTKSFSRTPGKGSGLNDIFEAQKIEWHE
T2 chain 2: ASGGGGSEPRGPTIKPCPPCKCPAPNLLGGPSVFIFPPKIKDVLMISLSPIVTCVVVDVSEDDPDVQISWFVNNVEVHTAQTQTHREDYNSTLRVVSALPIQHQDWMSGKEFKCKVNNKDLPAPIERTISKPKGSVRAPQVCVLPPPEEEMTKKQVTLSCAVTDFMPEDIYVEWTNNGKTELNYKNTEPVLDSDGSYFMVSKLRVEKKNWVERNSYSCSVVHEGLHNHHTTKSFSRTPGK

[3] = biological target: T2, recombinant trimeric protein of human …; assay: competition ELISA, Fab titrated, human CD27 coated, biotin-CD70
Experimental: The next day, the plate was washed 3 times with PBS, added with 200 μL of 2% defatted dry milk/PBS, blocked at room temperature for 2 hours, and washed once with PBS, 50 μL of different dilution gradients of Fab antibodies were added and incubated at room temperature for 30 minutes. […] The plate was washed 3 times with PBST and PBS and dried by spinning. A secondary antibody solution Streptavidin-coupled horseradish peroxidase SA-HRP (BD bioscience, Cat. No: 6222697) was diluted with 0.5% BSA in a ratio of 1:8000. 100 μl of the diluent was added into each well and incubate at room temperature for 30 minutes. The plate was washed 3 times with PBST and PBS and dried by spinning. 100 μl of the color development solution (TMB solution, Sigma, Cat. No: T2885) was added into each well and protected from light at 37° C. for reaction. After the substrate developed moderately, 50 μl of 2M concentrated sulfuric acid solution was added into each well to terminate the reaction. The OD450 nm was determined by using an enzyme-linked detector within 30 minutes, and the data was collected.

[4] = biological target: T1, human CD70, full length, on CHO cells …; assay: flow cytometry, chimeric IgG on CHO-human CD70 cells
Experimental: Different cells in logarithmic growth phase were taken, blocked with 3% BSA for 30 minutes, and plated to a 96-well U-plate at 5×10⁴ cells/100 μL. The centrifuge was performed at 1100 rpm for 3 minutes. The supernatant was discarded and the cells were gently tapped to be loosening. 50 μL of gradient diluted antibody was added (antibody concentration: from 30 μg/mL, 3-fold dilution for 5 gradients) per well, and incubated at 4° C. for 1 hour. After incubation, 180 μL of 0.5% BSA was added to each well for washing 3 times. 30 μL/well of secondary antibody AlexaFluro647 anti-human IgG (Jackson Immuno Research, Cat. No: 109-606-170) was added and incubated at 4° C. for 45 minutes. At the end of the incubation, each well was washed 3 times with 180 μL of 0.5% BSA and finally resuspended in 50 μL of PBS for iQue (Intellicyt, USA) assay.

[5] = biological target: T2, recombinant trimeric protein of human …; assay: competition ELISA, chimeric IgG titrated, CD27 coated, biotin-CD70, human pair
Experimental: The recombinant CD27 protein was coated at 1 μg/mL in a 96-well microtiter plate and incubated overnight at 4° C. The next day, the plate was washed 3 times with PBS, added with 200 μL of 2% defatted dry milk/PBS, blocked at room temperature for 2 hours, and washed once with PBS. The purified chimeric antibody was divided to 12 concentration gradients starting at 100 nM and diluted in a 1:3 gradient. […] of the antibody was added per well and incubated at room temperature for 30 minutes. […] The plate was washed 3 times with PBST and PBS and dried by spinning. A secondary antibody Streptavidin-coupled horseradish peroxidase SA-HRP (BD bioscience, cat. No: 6222697) was diluted with 0.5% BSA in a ratio of 1:8000. 100 μL of the diluent was added into each well and incubated at room temperature for 30 minutes. The plate was washed 3 times with PBST and PBS and dried by spinning. 100 μl of color development solution (TMB solution, Sigma, Cat. No: T2885) was added into each well and protected from light at 37° C. for reaction. After the substrate developed moderately, 50 μl of H₂SO₄ was added into each well to terminate the reaction. The OD450 nm was determined by using an enzyme-linked detector within 30 minutes, and the data was collected. The results were calculated by using Graph Pad Prism 5 software.

B1: 2B12 Fab antibody (Fab, V domains shown)
VH: QVQLQQSGPGLVQPSQSLSITCTVSGFSLTTYAVHWVRQSPGKGLEWLGVIWSTGITDYNAAFISRLSISKDNSKSQVFFKMNSLQSDDIAIYYCARNPYYGNLNAMDYWGQGTSVTVSS
VL: DIVLTQSPASLAVSLGQRATISCRASKSVDTSGYSFMHWYQQKPGQPPKLLIYLASNLESGVPARFSGSGSGTDFTLNIHPVEEEDAATYYCQHSRELPLTFGAGTKLELK
notes: Purified Fab from the mouse Fab phage display library
EC50 [1]: 8.6 nM
koff [2]: 0.000125 s⁻¹
IC50 [3]: 0.29 nM

B2: 14C12 Fab antibody (Fab, V domains shown)
VH: EVQLQQSGPELVKPGASVKMSCKASGYTFTDYVIHWVKQKPGQGLEWIGYLHPYNDDTKYNEKFKGKATLTSDKSSSTAYMELSSLTSEDSAVYYCARRGYYDYAWFADWGQGTLVTVSA
VL: DIVLTQSPASLAVSLGQRATISCRASKSVSASGYTWIHWYQQKPRQAPKLLIYLASNLESGVPARFSGSGSGTDFTLNIHPVEEEDAATYYCQHSRELPPTFGGGTKLEIK
notes: as for B1
EC50 [1]: 28 nM
koff [2]: 0.000321 s⁻¹
IC50 [3]: 0.79 nM

B3: 32D1 Fab antibody (Fab, V domains shown)
VH: EVQLQQSGPELVKPGASLKMSCKASGYTFTDYVIHWVKQKPGQGLEWIGYLHPYNDDTKYNEKFKGKATLTSDKSSSTAYMELNSLTSEDSAVYYCARRGYYDYAWFADWGQGTLVTVSA
VL: DIVLTQSPASLAVSLGQRATISCKASKSVSASGYTWMHWYQQKPGQAPKLLIYLASNLESGVPARFSGSGSGTDFTLNIHPVEEEDAATYYCQHSRELPPTFGGGTKLEIK
notes: as for B1
EC50 [1]: 8.1 nM
koff [2]: 0.00183 s⁻¹
IC50 [3]: 2.26 nM

B4: 12A1 chimeric antibody (antibody, V domains shown)
VH: QVQLQQSGPGLVQPSQSLSITCTVSGFSLTTYAVHWVRQSPGKGLEWLGVIWSTGITDYNAAFISRLSISKDNSKSQVFFKMDSLQSDDTAIYFCARNPHYGNLNAMDYWGQGTSVTVSS
VL: DIVLTQSPASLAVSLGQRATISCRASKSVSASGYTWMHWYQQKPGQAPKLLIYLASNLESGVPARFSGSGSGTDFTLNIHPVEEEDAATYYCQHSRELPPTFGGGTKLEIK
EC50 [4]: 7.55 nM
IC50 [5]: 0.12 nM

B5: 23A11 Fab antibody (Fab, V domains shown)
VH: QVQLQQSGPGLVQPSQSLSITCTVSGFSLTTYAVHWVRQSPGKGLEWLGVIWSVGSTDYNAAFISRLSISKDNSKSQVFFKMNSLQADDTAIYYCARNIYYGNVYAMDYWGQGTSVTVSS
VL: DIVLTQSPASLAVSLGQRATISCRASKSVDASGYSFMHWYQQKAGQPPKLLIYLASNLESGVPARFSGRGSGTDFTLNIHPVEEGDAATYYCQHSRELPLTFGAGTKLEIK
notes: as for B1
EC50 [1]: 15.6 nM
koff [2]: 0.000403 s⁻¹
IC50 [3]: 0.5 nM

B6: 23A11 chimeric antibody (antibody, V domains shown)
VH: QVQLQQSGPGLVQPSQSLSITCTVSGFSLTTYAVHWVRQSPGKGLEWLGVIWSVGSTDYNAAFISRLSISKDNSKSQVFFKMNSLQADDTAIYYCARNIYYGNVYAMDYWGQGTSVTVSS
VL: DIVLTQSPASLAVSLGQRATISCRASKSVDASGYSFMHWYQQKAGQPPKLLIYLASNLESGVPARFSGRGSGTDFTLNIHPVEEGDAATYYCQHSRELPLTFGAGTKLEIK
EC50 [4]: 11.9 nM
IC50 [5]: 0.07 nM

B7: 3B2 Fab antibody (Fab, V domains shown)
VH: EVQLKQSGPGLVQPSQSLSITCTVSGFSLTTYGVHWVRQSPGKGLEWLGVIWSTGITDYNAAFISRLSISKDNSKSQVFFKMNSLQADDTAIYYCARNSYYGNLYVMDYWGQGTSVTVSS
VL: DIVLTQSPASLAVSLGQRATISCRASKSVSASGYNFMHWYQQKPGQPPKLLIYLASNLESGVPARFSGSGSGTDFTLNIHPVEEEDAATYYCQHSRELPLTFGAGTKLELK
notes: as for B1
EC50 [1]: 14.2 nM
koff [2]: 0.000325 s⁻¹
IC50 [3]: 0.32 nM

B8: 27A3 Fab antibody (Fab, V domains shown)
VH: EVQLQESGPGLVQPSQSLSITCTVSGFSLTTYAVHWVRQSPGKGLEWLGVIWSTGITDYNADFISRLSISKDNSKSQVFFKMDSLQSDDTAIYFCARNHYYGNLNAMDYWGQGTSVTVSS
VL: DIVLTQSPASLAVSLGQRATISCRASKSVSTSGYSFMHWYQQKPGQPPKLLIYLASNLESGVPARFSGSGSGTDFTLNIHPVEEEDAATYYCQHSRELPYTFGGGTKLEIK
notes: as for B1
EC50 [1]: 12.4 nM
koff [2]: 0.000172 s⁻¹
IC50 [3]: 0.51 nM

B9: 12A1 Fab antibody (Fab, V domains shown)
VH: QVQLQQSGPGLVQPSQSLSITCTVSGFSLTTYAVHWVRQSPGKGLEWLGVIWSTGITDYNAAFISRLSISKDNSKSQVFFKMDSLQSDDTAIYFCARNPHYGNLNAMDYWGQGTSVTVSS
VL: DIVLTQSPASLAVSLGQRATISCRASKSVSASGYTWMHWYQQKPGQAPKLLIYLASNLESGVPARFSGSGSGTDFTLNIHPVEEEDAATYYCQHSRELPPTFGGGTKLEIK
notes: as for B1
EC50 [1]: 17.7 nM
koff [2]: 0.000317 s⁻¹
IC50 [3]: 1.88 nM
